Assay [1] addresses wild-type Aplysia Kv1 voltage-gated potassium channel subunit, full-length (aKv1/FL) (Aplysia).
The target is the same in assay [2]. The source holds these as a separate data set.

In assay [1], “Opto-aKv1/SL/V400D (dominant-negative, short-length Opto-aKv1 subunit: aKv1 N-terminus, VfAu1 LOV domain, aKv1 from the T1 domain on, pore mutation V400D)” returned a reduction in current density at +80 mV in cerebellar granule cells electroporated with both constructs, after 1.5 hours of blue light of 80%. Besides, the suppression of the fast inactivating aKv1/FL whole-cell current in co-transfected CHO cells after 1.5 hours of blue light in assay [2] is 70%.

The values are drawn from publication PMC7987177.
